In US20220202913, “NOVEL OMNI-50 CRISPR NUCLEASE” (EmendoBio Inc., published 2022):

T1: OMNI-50 (Ezakiella peruensis strain M6.X2)
T1 sequence: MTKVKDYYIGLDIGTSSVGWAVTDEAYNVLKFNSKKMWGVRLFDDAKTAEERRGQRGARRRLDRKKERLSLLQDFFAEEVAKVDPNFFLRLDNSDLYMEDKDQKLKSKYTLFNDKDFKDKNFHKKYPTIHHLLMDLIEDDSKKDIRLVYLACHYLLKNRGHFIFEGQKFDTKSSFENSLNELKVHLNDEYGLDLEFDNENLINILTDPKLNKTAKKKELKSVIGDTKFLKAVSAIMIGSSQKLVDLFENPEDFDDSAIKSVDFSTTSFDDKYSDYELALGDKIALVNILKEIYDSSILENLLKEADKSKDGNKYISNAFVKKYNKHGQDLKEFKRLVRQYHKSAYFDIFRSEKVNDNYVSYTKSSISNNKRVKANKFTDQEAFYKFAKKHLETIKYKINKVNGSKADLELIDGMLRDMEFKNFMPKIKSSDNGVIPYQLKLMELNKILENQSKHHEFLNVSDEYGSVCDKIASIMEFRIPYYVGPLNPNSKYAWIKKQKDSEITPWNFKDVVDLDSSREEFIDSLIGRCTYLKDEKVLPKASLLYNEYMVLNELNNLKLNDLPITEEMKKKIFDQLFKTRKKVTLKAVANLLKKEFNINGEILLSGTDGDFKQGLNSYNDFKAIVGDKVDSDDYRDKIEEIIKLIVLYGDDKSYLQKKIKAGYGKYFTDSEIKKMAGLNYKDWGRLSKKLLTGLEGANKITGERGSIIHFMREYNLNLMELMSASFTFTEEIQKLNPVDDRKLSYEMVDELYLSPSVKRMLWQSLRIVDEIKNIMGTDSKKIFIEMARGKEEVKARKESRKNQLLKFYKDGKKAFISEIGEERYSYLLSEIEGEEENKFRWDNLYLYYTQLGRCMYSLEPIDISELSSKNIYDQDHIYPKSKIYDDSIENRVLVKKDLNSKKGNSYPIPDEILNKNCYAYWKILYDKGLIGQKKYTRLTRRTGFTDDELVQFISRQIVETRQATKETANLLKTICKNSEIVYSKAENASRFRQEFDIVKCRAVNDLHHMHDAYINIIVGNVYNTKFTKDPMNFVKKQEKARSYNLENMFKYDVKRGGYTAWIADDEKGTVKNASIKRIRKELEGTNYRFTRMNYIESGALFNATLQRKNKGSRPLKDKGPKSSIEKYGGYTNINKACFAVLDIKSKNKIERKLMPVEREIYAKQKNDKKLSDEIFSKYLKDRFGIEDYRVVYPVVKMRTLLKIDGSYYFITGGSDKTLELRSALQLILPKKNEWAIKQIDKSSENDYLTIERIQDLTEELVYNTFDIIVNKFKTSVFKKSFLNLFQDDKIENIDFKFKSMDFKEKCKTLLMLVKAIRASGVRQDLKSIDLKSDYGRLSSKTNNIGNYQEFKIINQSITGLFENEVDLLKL

T2: OMNI-50 (Ezakiella peruensis strain M6.X2)
T2 chain: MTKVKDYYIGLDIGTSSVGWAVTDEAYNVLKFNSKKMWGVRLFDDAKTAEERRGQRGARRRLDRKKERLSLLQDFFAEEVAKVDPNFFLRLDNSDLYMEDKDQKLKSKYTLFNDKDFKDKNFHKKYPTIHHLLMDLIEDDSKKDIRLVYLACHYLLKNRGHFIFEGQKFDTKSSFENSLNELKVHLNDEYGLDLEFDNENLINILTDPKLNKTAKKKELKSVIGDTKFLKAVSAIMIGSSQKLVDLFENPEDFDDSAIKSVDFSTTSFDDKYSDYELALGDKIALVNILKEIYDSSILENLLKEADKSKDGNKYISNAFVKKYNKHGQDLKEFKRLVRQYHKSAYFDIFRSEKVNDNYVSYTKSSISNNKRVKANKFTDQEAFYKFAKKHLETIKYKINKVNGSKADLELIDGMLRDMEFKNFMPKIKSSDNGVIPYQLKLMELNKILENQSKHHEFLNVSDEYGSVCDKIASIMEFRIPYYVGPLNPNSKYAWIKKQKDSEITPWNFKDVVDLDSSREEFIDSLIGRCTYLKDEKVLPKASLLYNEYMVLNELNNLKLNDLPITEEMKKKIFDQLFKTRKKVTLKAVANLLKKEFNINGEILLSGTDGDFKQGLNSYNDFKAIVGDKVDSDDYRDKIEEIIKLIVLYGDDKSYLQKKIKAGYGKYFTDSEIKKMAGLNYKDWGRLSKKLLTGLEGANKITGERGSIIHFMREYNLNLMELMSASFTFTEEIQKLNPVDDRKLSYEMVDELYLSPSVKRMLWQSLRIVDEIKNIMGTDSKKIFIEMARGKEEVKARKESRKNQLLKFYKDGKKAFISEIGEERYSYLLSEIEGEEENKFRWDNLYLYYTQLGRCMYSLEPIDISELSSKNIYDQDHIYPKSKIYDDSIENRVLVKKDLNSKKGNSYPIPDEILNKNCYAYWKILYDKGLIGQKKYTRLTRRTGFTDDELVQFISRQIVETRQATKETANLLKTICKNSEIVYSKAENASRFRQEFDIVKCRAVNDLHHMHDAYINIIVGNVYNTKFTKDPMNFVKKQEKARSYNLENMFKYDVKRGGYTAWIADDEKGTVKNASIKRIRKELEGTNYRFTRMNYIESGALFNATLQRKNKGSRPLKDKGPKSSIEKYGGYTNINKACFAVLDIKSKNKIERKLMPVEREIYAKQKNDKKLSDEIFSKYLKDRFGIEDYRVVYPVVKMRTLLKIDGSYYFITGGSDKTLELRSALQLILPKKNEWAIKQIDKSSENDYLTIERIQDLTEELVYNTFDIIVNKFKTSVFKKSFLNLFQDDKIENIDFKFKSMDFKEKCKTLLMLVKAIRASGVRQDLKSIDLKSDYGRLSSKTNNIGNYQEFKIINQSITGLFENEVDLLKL


How the values were obtained:
[1] = system: T1, OMNI-50 (Ezakiella peruensis strain M6.X2); test: cleavage_in_vitro; settings: TXTL PAM depletion, PAM NGG; some activity with NAG and NGA; sgRNA V1 and V2
OMNI-50 = target: T2, OMNI-50; test: cell_activity; PAM NGG; RNP in U2OS; settings: tags: SV40 NLS N-terminal, HA-SV40 NLS-8xHis C-terminal (pET9a)
Procedure: FIG. 5A-FIG. 5D: OMNI-50 activity Assay as RNP. OMNI-50 nuclease was over-expressed and purified. The purified protein was complexed with synthetic sgRNA to form RNPs. For the in-vitro assays (FIG. 5A and FIG. 5B) RNPs were incubated with a linear DNA template containing the corresponding target and PAM sequences (listed in Table 5). Activity was verified by cleavage of the linear template. For the in-vivo assays (FIG. 5C and FIG. 5D), U2OS cells were electroporated with RNPs and activity was determined by measurement of indel frequency by NGS. FIG. 5A: Activity assay of OMNI-50 RNP with different spacer lengths (17-23 bps) of guide 35 (Table 10). FIG. 5B: Decreasing amounts of RNPs (4 pmol, 2 pmol, 1.2 pmol, 0.6 pmol and 0.2 pmol) with spacer lengths 20-23 nts were incubated with 100 ng DNA target template. FIG. 5C: Activity assay for OMNI-50 as RNP in U2OS cells: RNPs with spacer lengths 17-23 bps were electroporated into U2OS cell line and editing levels (indels) measured by NGS. FIG. 5D: Activity assay for OMNI-50 as RNP in U2OS cells: RNPs with ELANE g35 sgRNA V1-V4 were electroporated into U2OS cell line and editing levels (indels) measured by NGS.
Spacer length optimization was also performed in a mammalian cell context. RNPs were assembled by mixing 100 uM nuclease with 120 uM of synthetic guide with different spacer lengths (17-23 nt, Table 5) and 100 uM Cas9 electroporation enhancer (IDT). After 10 minutes of incubation at room temperature, the RNP complexes were mixed with 200,000 pre-washed U2OS, iPSC, or HSC cells and electroporated using Lonza SE or P3 Cell Line 4D-Nucleofector™ X Kit with the DN100 or CA137 program, respectively, according to the manufacture's protocol. At 72 h cells were lysed and their genomic DNA was used in a PCR reaction to amplify the corresponding putative genomic targets. Amplicons were subjected to NGS and the resulting sequences were then used to calculate the percentage of editing events.

Molecule	activity (1-depletion score) [1]	activity (OMNI-50) [% indels]
GGAAGAGCAGAGCCUUGGUCUCGUUUGAGAGUUAUGUAAGAAAUUACAUGACGAGUUCAAAUAAAAAUUUAUUCAAACCGCCUAUUUAUAGGCCGCAGAUGUUCUGCAUUAUGCUUGCUAUUGCAAGCUUUUUU / GGAAGAGCAGAGCCTTGGTCTCNNNNNNNN / NNNNNNNNGAGACCAAGGCTCTGCTCTTCC [T2 sgRNA V2 ; T2 protospacer 8N PAM library]	0.98	–
ELANE g35 sgRNA V2 22 nt spacer ; ELANE g35 on-target (ssRNA ; dsDNA, three 2'-OMe 3'-PS at 5' and 3' ends) RNA: GCAGUCCGGGCUGGGAGCGGGUGUUUGAGAGUUAUGUAAGAAAUUACAUGACGAGUUCAAAUAAAAAUUUAUUCAAACCGCCUAUUUAUAGGCCGCAGAUGUUCUGCAUUAUGCUUGCUAUUGCAAGCUUUUUU DNA 1: CTGTTGCTGCAGTCCGGGCTGGGAGCGGGTGGGGAGCAGAGGG DNA 2: CCCTCTGCTCCCCACCCGCTCCCAGCCCGGACTGCAGCAACAG	–	90.9
ELANE g35 sgRNA V2 17 nt spacer ; ELANE g35 on-target (ssRNA ; dsDNA, three 2'-OMe 3'-PS at 5' and 3' ends) RNA: CCGGGCUGGGAGCGGGUGUUUGAGAGUUAUGUAAGAAAUUACAUGACGAGUUCAAAUAAAAAUUUAUUCAAACCGCCUAUUUAUAGGCCGCAGAUGUUCUGCAUUAUGCUUGCUAUUGCAAGCUUUUUU DNA 1: CTGTTGCTGCAGTCCGGGCTGGGAGCGGGTGGGGAGCAGAGGG DNA 2: CCCTCTGCTCCCCACCCGCTCCCAGCCCGGACTGCAGCAACAG	–	0.54
ELANE g35 sgRNA V2 20 nt spacer ; ELANE g35 on-target (ssRNA ; dsDNA, three 2'-OMe 3'-PS at 5' and 3' ends) RNA: AGUCCGGGCUGGGAGCGGGUGUUUGAGAGUUAUGUAAGAAAUUACAUGACGAGUUCAAAUAAAAAUUUAUUCAAACCGCCUAUUUAUAGGCCGCAGAUGUUCUGCAUUAUGCUUGCUAUUGCAAGCUUUUUU DNA 1: CTGTTGCTGCAGTCCGGGCTGGGAGCGGGTGGGGAGCAGAGGG DNA 2: CCCTCTGCTCCCCACCCGCTCCCAGCCCGGACTGCAGCAACAG	–	43.8
